Data as given in patent publication US20230312742A1 (Y MABS THERAPEUTICS, published 2023).
Where a chain is given by its changes, count along the chain named. In names and notes the source's numbering stands.

Assays:
[1] = molecular target: T1, human CD38 antigen (recombinant human CD38 protein) (human, UniProt P28907 43-300, limits assumed); assay: SPR, BsAb (1 µg/ml) captured on anti-human Fc chip, human CD38 in solution; average, N=6
[2] = molecular target: T2, CD38 on CD38(+) cancer cells (RPMI8226, Raji, Daudi) (UniProt P28907 1-300, limits assumed); assay: flow cytometry on RPMI8226 cells
T2 construct: whole, on cells; Endogenous CD38 on tumour cell lines; also called CD38(+) tumor cells; CD38(+) Raji cells

[3] = molecular target: T1, human CD38 antigen (recombinant human …); assay: SPR, IgG captured on anti-human Fc, human CD38 in solution;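 also: humanized IgG captured on an amine-coupled anti-human Fc HC30M chip, with human CD38 injected as a dilution series from 1000 nM downward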
[4] = molecular target: T1, human CD38 antigen (recombinant human …); assay: SPR, antibody captured on Protein-L chip, human CD38 in solution; humanized 8DC3
[5] = molecular target: T2, CD38 on CD38(+) cancer cells (RPMI8226, …); assay: flow cytometry on Raji cells, detection with an anti-his tag antibody
[6] = molecular target: T1, human CD38 antigen (recombinant human …); assay: SPR, construct captured on immobilised protein-L (HC30M chip), human CD38 antigen flown over
[7] = molecular target: T1, human CD38 antigen (recombinant human …); assay: SPR, His-tagged SADA captured on NiHC200M chip, recombinant human CD38 in solution; average
[8] = molecular target: T2, CD38 on CD38(+) cancer cells (RPMI8226, …); assay: flow cytometry on RPMI 8226 cells, detection with an anti-his tag antibody
[9] = molecular target: T1, human CD38 antigen (recombinant human …); assay: SPR, His-tagged SADA construct captured on a NiHC200M chip, recombinant human CD38 protein injected
[10] = molecular target: T2, CD38 on CD38(+) cancer cells (RPMI8226, …); assay: flow cytometry on Daudi cells, goat anti-human IgG fluorochrome-conjugated secondary antibody
[11] = molecular target: T1, human CD38 antigen (recombinant human …); assay: SPR, His-tagged SADA construct captured on a NiHC200M chip, recombinant human CD38 protein injected; remark: listed apart in the source

B1: 8DC1OK (CD3xCD38 bispecific antibody, IgG-L-scFv format, chimeric AT13/5 VL and VH) (bispecific antibody)
light: DIQLTQSPSSFSVSLGDRVTITCKASEDIYNRLTWYQQKPGNAPRLLISGATSLETGVPSRFSGSGSGKDYTLSITSLQTEDVATYYCQQYWSNPYTFGGGTKLEIRRTVAAPSVFIFPPSDEQLKSGTASVVCLLNNFYPREAKVQWKVDNALQSGNSQESVTEQDSKDSTYSLSSTLTLSKADYEKHKVYACEVTHQGLSSPVTKSFNRGECGGGGSGGGGSGGGGSGGGGSQVQLVQSGGGVVQPGRSLRLSCKASGYTFTRYTMHWVRQAPGKCLEWIGYINPSRGYTNYNQKFKDRFTISRDNSKNTAFLQMDSLRPEDTGVYFCARYYDDHYSLDYWGQGTPVTVSSGGGGSGGGGSGGGGSGGGGSGGGGSGGGGSDIQMTQSPSSLSASVGDRVTITCSASSSVSYMNWYQQTPGKAPKRWIYDTSKLASGVPSRFSGSGSGTDYTFTISSLQPEDIATYYCQQWSSNPFTFGCGTKLQITR
heavy: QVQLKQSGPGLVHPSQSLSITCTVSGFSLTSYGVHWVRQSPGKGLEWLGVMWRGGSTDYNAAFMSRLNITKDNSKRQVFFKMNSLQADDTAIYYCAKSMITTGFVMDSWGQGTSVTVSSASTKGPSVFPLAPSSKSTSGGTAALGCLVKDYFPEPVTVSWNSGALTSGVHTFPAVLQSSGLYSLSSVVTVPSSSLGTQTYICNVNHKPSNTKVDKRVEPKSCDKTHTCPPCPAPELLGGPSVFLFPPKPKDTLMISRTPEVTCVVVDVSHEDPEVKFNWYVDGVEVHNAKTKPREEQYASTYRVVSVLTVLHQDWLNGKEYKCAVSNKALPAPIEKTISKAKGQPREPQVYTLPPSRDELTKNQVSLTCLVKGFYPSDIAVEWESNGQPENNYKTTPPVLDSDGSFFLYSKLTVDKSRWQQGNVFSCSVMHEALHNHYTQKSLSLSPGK
notes: Light chain: anti-CD38 VL-CL-(G4S)4-huOKT3 VH-(G4S)6-huOKT3 VL; also called the chimeric antibody 8DC1OK
- Kd [1]: 1.6 nM
- koff [1]: 0.00076 s⁻¹
- kon [1]: 470000 M⁻¹ s⁻¹
- EC50 [2]: 0.076 µg/mL

B2: Chimeric (chimeric AT13/5 anti-CD38 IgG) (antibody, V domains shown)
VH: QVQLKQSGPGLVHPSQSLSITCTVSGFSLTSYGVHWVRQSPGKGLEWLGVMWRGGSTDYNAAFMSRLNITKDNSKRQVFFKMNSLQADDTAIYYCAKSMITTGFVMDSWGQGTSVTVSS
VL: DIQLTQSPSSFSVSLGDRVTITCKASEDIYNRLTWYQQKPGNAPRLLISGATSLETGVPSRFSGSGSGKDYTLSITSLQTEDVATYYCQQYWSNPYTFGGGTKLEIR
notes: IgG format, captured on anti-human Fc; chimeric VL + chimeric VH (murine AT13/5 variable regions)
- Kd [3]: 2.8 nM

B3: 8DC-3 (anti-CD38 scFv-(G4S)4-huC825 anti DOTA scFv-linker-P53-linker-His tag) (bispecific antibody)
chain: QVQLQESGPGLVKPSETLSLTCTVSGFSLTSYGVHWVRQPPGKGLEWIGVMWRGGSTDYNAAFKSRVTISKDNSKNQVSLKLSSVTAADTAVYYCAKSMITTGFVMDSWGQGTLVTVSSGGGGSGGGGSGGGGSGGGGSGGGGSGGGGSDIQLTQSPSSLSASVGDRVTITCKASEDIYNRLTWYQQKPGKAPKLLISGATSLETGVPSRFSGSGSGKDYTFTISSLQPEDFATYYCQQYWSNPYTFGQGTKLEIKGGGGSGGGGSGGGGSGGGGSHVQLVESGGGLVQPGGSLRLSCAASGFSLTDYGVHWVRQAPGKGLEWLGVIWSGGGTAYNTALISRFTISRDNSKNTLYLQMNSLRAEDTAVYYCARRGSYPYNYFDAWGCGTLVTVSSGGGGSGGGGSGGGGSGGGGSGGGGSGGGGSQAVVTQEPSLTVSPGGTVTLTCGSSTGAVTASNYANWVQQKPGQCPRGLIGGHNNRPPGVPARFSGSLLGGKAALTLLGAQPEDEAEYYCALWYSDHWVIGGGTKLTVLGTPLGDTTHTSGKPLDGEYFTLQIRGRERFEMFRELNEALELKDAQAGKEPGGSGGAPHHHHHH
notes: SADA construct with VL5 and VH8
- Kd [4]: 31 nM
- EC50 (read off the curve) [5]: ~60 ng/mL
- koff [6]: 0.00085 s⁻¹
- kon [6]: 27000 M⁻¹ s⁻¹

B4: 8DC-4 (anti-CD38 scFv-(G4S)4-huC825 anti DOTA scFv-linker-P53-linker-His tag) (bispecific antibody)
chain: B3 chain with G44C, Q249C
notes: SADA construct with VL8 and VH11 (extra disulfide in the anti-CD38 scFv), VH-VL order
- Kd [7]: 0.28 nM
- kon [7]: 89000 M⁻¹ s⁻¹
- EC50 (read off the curve) [8]: ~70 ng/mL
- EC50 (read off the curve) [5]: ~50 ng/mL
- Kd [9]: 0.532 nM

B5: 8DC3OK (CD3xCD38 bispecific antibody, IgG-L-scFv format, humanized VL5 and VH8) (bispecific antibody)
light: DIQLTQSPSSLSASVGDRVTITCKASEDIYNRLTWYQQKPGKAPKLLISGATSLETGVPSRFSGSGSGKDYTFTISSLQPEDFATYYCQQYWSNPYTFGQGTKLEIKRTVAAPSVFIFPPSDEQLKSGTASVVCLLNNFYPREAKVQWKVDNALQSGNSQESVTEQDSKDSTYSLSSTLTLSKADYEKHKVYACEVTHQGLSSPVTKSFNRGECGGGGSGGGGSGGGGSGGGGSQVQLVQSGGGVVQPGRSLRLSCKASGYTFTRYTMHWVRQAPGKCLEWIGYINPSRGYTNYNQKFKDRFTISRDNSKNTAFLQMDSLRPEDTGVYFCARYYDDHYSLDYWGQGTPVTVSSGGGGSGGGGSGGGGSGGGGSGGGGSGGGGSDIQMTQSPSSLSASVGDRVTITCSASSSVSYMNWYQQTPGKAPKRWIYDTSKLASGVPSRFSGSGSGTDYTFTISSLQPEDIATYYCQQWSSNPFTFGCGTKLQITR
heavy: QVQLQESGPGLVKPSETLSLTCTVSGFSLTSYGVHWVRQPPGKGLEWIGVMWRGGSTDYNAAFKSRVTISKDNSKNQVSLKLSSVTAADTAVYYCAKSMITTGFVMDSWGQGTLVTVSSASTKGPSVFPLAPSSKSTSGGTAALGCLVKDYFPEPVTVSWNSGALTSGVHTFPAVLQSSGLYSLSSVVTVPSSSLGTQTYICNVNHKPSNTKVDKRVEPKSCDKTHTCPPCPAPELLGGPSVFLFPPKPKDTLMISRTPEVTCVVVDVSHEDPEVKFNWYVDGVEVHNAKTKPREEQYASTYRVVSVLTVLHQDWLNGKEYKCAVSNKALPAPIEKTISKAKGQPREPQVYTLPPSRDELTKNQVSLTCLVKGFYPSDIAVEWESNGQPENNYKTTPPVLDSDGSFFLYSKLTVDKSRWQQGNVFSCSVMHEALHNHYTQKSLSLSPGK
notes: Light chain: anti-CD38 VL-CL-(G4S)4-huOKT3 VH-(G4S)6-huOKT3 VL
- Kd [1]: 8.8 nM
- koff [1]: 0.0018 s⁻¹
- kon [1]: 210000 M⁻¹ s⁻¹
- EC50 (read off the curve) [10]: ~100 ng/mL
- EC50 [2]: 0.167 µg/mL
- fold weaker EC50 than the chimeric antibody 8DC1OK [2]: ~2 fold

B6: L4H5 (antibody, V domains shown)
VH: QVQLQESGPGLVKPSETLSLTCTVSGFSLTSYGVHWIRQPPGKGLEWIGVMWRGGSTDYNPSLKSRVTISVDTSKNQFSFKLSSVTAADTAIYYCAKSMITTGFVMDSWGQGTLVTVSS
VL: DIQMTQSPSSLSASVGDRVTITCRASEDIYNRLTWYQQKPGKAPKLLLYGATSLETGVPSRFSGSGSGKDYTLTISSLQPEDFATYYCQQYWSNPYTFGGGTKVEIK
notes: Humanized AT13/5 IgG, VL4 + VH5
- Kd [3]: 320 nM

B7: L4H6 (antibody, V domains shown)
VH: B6 VH with I48L, D58N, V71K, F80L, I92V
VL: B6 VL
notes: Humanized AT13/5 IgG, VL4 + VH6
- Kd [3]: 580 nM

B8: L4H7 (antibody, V domains shown)
VH: B6 VH with Q5K, E6Q, D58N, V67L, F80L, I92V
VL: B6 VL
notes: Humanized AT13/5 IgG, VL4 + VH7
- Kd [3]: 870 nM

B9: 8DC-5 (anti-CD38 scFv-(G4S)4-huC825 anti DOTA scFv-linker-P53-linker-His tag) (bispecific antibody)
chain: DIQLTQSPSSLSASVGDRVTITCKASEDIYNRLTWYQQKPGKAPKLLISGATSLETGVPSRFSGSGSGKDYTFTISSLQPEDFATYYCQQYWSNPYTFGCGTKLEIKGGGGSGGGGSGGGGSGGGGSGGGGSGGGGSQVQLQESGPGLVKPSETLSLTCTVSGFSLTSYGVHWVRQPPGKCLEWIGVMWRGGSTDYNAAFKSRVTISKDNSKNQVSLKLSSVTAADTAVYYCAKSMITTGFVMDSWGQGTLVTVSSGGGGSGGGGSGGGGSGGGGSHVQLVESGGGLVQPGGSLRLSCAASGFSLTDYGVHWVRQAPGKGLEWLGVIWSGGGTAYNTALISRFTISRDNSKNTLYLQMNSLRAEDTAVYYCARRGSYPYNYFDAWGCGTLVTVSSGGGGSGGGGSGGGGSGGGGSGGGGSGGGGSQAVVTQEPSLTVSPGGTVTLTCGSSTGAVTASNYANWVQQKPGQCPRGLIGGHNNRPPGVPARFSGSLLGGKAALTLLGAQPEDEAEYYCALWYSDHWVIGGGTKLTVLGTPLGDTTHTSGKPLDGEYFTLQIRGRERFEMFRELNEALELKDAQAGKEPGGSGGAPHHHHHH
notes: SADA construct with VL8 and VH11 (extra disulfide in the anti-CD38 scFv), VL-VH order
- Kd [7]: 0.17 nM
- kon [7]: 96000 M⁻¹ s⁻¹
- EC50 (read off the curve) [8]: ~50 ng/mL
- Kd [11]: 0.214 nM
- EC50 (read off the curve) [5]: ~70 ng/mL
